Source: publication PMC6404601
Where “and” joins values, the source holds several entries; their conditions need not be identical. Identical values can stand only once.

Target: YFP^C-Rho5 or YFP^C-Rho5^G12V
Assay: split reporter (BiFC, NanoBiT); BiFC of candidate VN fusions with YFP^C fusions of WT or mutant Rho5 (G12V, K16N) in living yeast cells; z-stack fluorescence microscopy at 22-25°; for Atg21-VN signals quantified above a threshold set from a strain with untagged Rho5

percent of cells with YFP signal above threshold: 40 % of cells and 62 % of cells
Substance: Atg21-VN (Atg21 tagged with VN, the N-terminal fragment of Venus) (from UniProt Q02887 1-496) (natural protein)
